Results as given in patent US9987241B2, “Enzyme conjugate and prodrug cancer therapy” (The Board of Regents of the University of Oklahoma, priority 2014, dated 2018).

B1: mCGL-AV: fusion protein of mouse cystathione-γ-lyase mutant with three mutations (SEQ ID NO:3) and annexin V; post-cleavage SEQ ID NO:10 (protein)
chain: MHHHHHHSSGLVPRGSGMKETAAAKFERQHMDSPDLGTDDDDKMLEVLFQGPMQKDASLSGFLPSFQHFATQAIHVGQEPEQWNSRAVVLPISLATTFKQDFPGQSSGFNYSRSGNPTRNCLEKAVAALDGAKHSLAFASGLAATITITHLLKAGDEIICMDEVYGGTNLYFRRVASEFGLKISFVDCSKTKLLEAAITPQTKLVWIETPTNPTLKLADIGACAQIVHKRGDIILVVDNTFMSAYFQRPLALGADICMCSATKYMNGHSDVVMGLVSVNSDDLNSRLRFLQNSLGAVPSPFDCYLCCRGLKTLQVRMEKHFKNGMAVARFLETNPRVEKVVYPGLPSHPQHELAKRQCSGCPGMVSFYIKGALQHAKAFLKNLKLFTLAVSLGGYESLAELPAIMTHASVPEKDRATLGINDTLIRLSVGLEDEQDLLEDLDRALKAAHPSGGGGSGGGGMATRGTVTDFPGFDGRADAEVLRKAMKGLGTDEDSILNLLTSRSNAQRQEIAQEFKTLFGRDLVDDLKSELTGKFEKLIVAMMKPSRLYDAYELKHALKGAGTDEKVLTEIIASRTPEELSAIKQVYEEEYGSNLEDDVVGDTSGYYQRMLVVLLQANRDPDTAIDDAQVELDAQALFQAGELKWGTDEEKFITIFGTRSVSHLRRVFDKYMTISGFQIEETIDRETSGNLEQLLLAVVKSIRSIPAYLAETLYYAMKGAGTDDHTLIRVVVSRSEIDLFNIRKEFRKNFATSLYSMIKGDTSGDYKKALLLLCGGEDD
modifications: pre-cleavage amino acid sequence of the mCGL-AV fusion protein
B2: mCGL-AI: fusion protein of mouse cystathione-γ-lyase mutant with three mutations (SEQ ID NO:3) and annexin I; post-cleavage SEQ ID NO:11 (protein)
chain: MHHHHHHSSGLVPRGSGMKETAAAKFERQHMDSPDLGTDDDDKMLEVLFQGPMQKDASLSGFLPSFQHFATQAIHVGQEPEQWNSRAVVLPISLATTFKQDFPGQSSGFNYSRSGNPTRNCLEKAVAALDGAKHSLAFASGLAATITITHLLKAGDEIICMDEVYGGTNLYFRRVASEFGLKISFVDCSKTKLLEAAITPQTKLVWIETPTNPTLKLADIGACAQIVHKRGDIILVVDNTFMSAYFQRPLALGADICMCSATKYMNGHSDVVMGLVSVNSDDLNSRLRFLQNSLGAVPSPFDCYLCCRGLKTLQVRMEKHFKNGMAVARFLETNPRVEKVVYPGLPSHPQHELAKRQCSGCPGMVSFYIKGALQHAKAFLKNLKLFTLAVSLGGYESLAELPAIMTHASVPEKDRATLGINDTLIRLSVGLEDEQDLLEDLDRALKAAHPSGGGGSGGGGMAMVSEFLKQARFLENQEQEYVQAVKSYKGGPGSAVSPYPSFNVSSDVAALHKAIMVKGVDEATIIDILTKRTNAQRQQIKAAYLQENGKPLDEVLRKALTGHLEEVVLAMLKTPAQFDADELRGAMKGLGTDEDTLIEILTTRSNEQIREINRVYREELKRDLAKDITSDTSGDFRKALLALAKGDRCQDLSVNQDLADTDARALYEAGERRKGTDVNVFTTILTSRSFPHLRRVFQNYGKYSQHDMNKALDLELKGDIEKCLTTIVKCATSTPAFFAEKLYEAMKGAGTRHKALIRIMVSRSEIDMNEIKVFYQKKYGISLCQAILDETKGDYEKILVALCGGN
modifications: pre-cleavage amino acid sequence of the mCGL-AI fusion protein

What was measured:
4T1 tumors = assay: Combination therapy on 4T1 tumors implanted orthotopically: tumor volume and survival; format: in vivo; settings: BALB/cJ mice with orthotopic 4T1 tumors; protocols of FIGS. 8 and 9; treatment day 10 to 30
Procedure: Selenomethionine (5 mg/kg IP) was administered 10 h post fusion protein administration. Rapamycin (5 mg/kg IP) and cyclophosphamide (10 mg/kg IP) were administered daily. Treatment began on day 10 and continued until day 30 as indicated by the arrow. Statistical significance vs. untreated is indicated by * (p<0.001).

4T1 lung metastasis = assay: Lung metastasis nodules in 4T1-TdTomato model; format: in vivo, BALB/c mouse; settings: after 3 weeks of treatment
Excerpt: A Leica stereomicroscope with an automated ImageJ macro was used to quantify fluorescent nodules in the lung. […] Median nodule size on the log scale is marked. Total nodules per group (n=3 mice) is summed and shown.

[1] = system: CD4+ CD25+ FoxP3+ regulatory T cell; settings: comparing mCGL-AV & Sel groups with and without Cyc, after 3 weeks of treatment
Excerpt: CD4+ CD25+ FoxP3+ regulatory T cell levels were quantified with flow cytometry and are presented as a percentage of spleen lymphocytes in BALB/c mice with 4T1 grafts after 3 weeks of treatment or healthy BALB/c mice with no tumor. Data is mean±SE (n=3 mice).

[2] = system: hypoxia-inducible factor-1 alpha (HIF-1-α); assay: Immunohistochemistry staining of HIF-1-α in tumor sections; format: in vivo, BALB/c mice; settings: after 3 weeks of treatment
Excerpt: Immunohistochemistry staining of HIF-1-α with DAB development was quantified from whole section images of mice sacrificed after 3 weeks of treatment. Data is presented as mean±SE (n=3 mice). Statistical significance between groups is indicated by +(p<0.01) or * (p<0.001).

[3] = system: human MDA-MB-231 breast tumors; assay: Dissociation constants of fusion proteins on MDA-MB-231 cells grown in vitro; format: binding; settings: for Kd: MDA-MB-231 cells in vitro, ± SE (n = 3), read-out: Dissociation Constant (Kd) MDA-MB-231
[4] = system: human HAAE-1 endothelial cells; assay: Dissociation constants of fusion proteins on HAAE-1 cells grown in vitro; format: binding; settings: for Kd: HAAE-1 cells in vitro, ± SE (n = 3), read-out: Dissociation Constant (Kd) HAAE-1
[5] = L-methioninase enzyme activity of fusion proteins; format: biochemical; settings: for L-methioninase enzyme activity compared with Met-AV: versus Met-AV fusion protein
[6] = Fusion protein specific IgG + IgM titers after daily IP administration; format: in vivo; settings: BALB/c mice
[7] = In vivo mCGL-AV plasma clearance (ELISA on serum); parameters: species or system mice; settings: 10 mg/kg intraperitoneal
Procedure: An ELISA assay for mCGL-AV was performed on serum samples at intervals following intraperitoneal administration of mCGL-AV at 10 mg/kg. Data is presented as mean±SE (n=3).
Clearance of the mCGL-AV protein from the circulation of BALB/cJ mice occurred with pharmacokinetics similar to the other enzyme prodrug systems in SCID mice.

mouse 4T1 breast tumors = assay: AV- and AI-targeted mCGL enzyme prodrug therapy on orthotopic 4T1 tumors; format: in vivo; settings: BALB/c mice; fusion protein 10 mg/kg IP daily with selenomethionine 5 mg/kg IP
Procedure: FIG. 6 is a comparison of efficacy of AV- and AI-targeted mCGL enzyme prodrug therapy with selenomethionine on 4T1 tumors implanted orthotopically in BALB/c mice. mCGL-AV and mCGL-AI were administered daily (10 mg/kg IP). Selenomethionine (5 mg/kg IP) was administered 10 h post fusion protein administration. Treatment began on day 11 and continued until day 18 as indicated by the arrow. Statistical significance vs. untreated is indicated by * (p<0.001). No significant difference was observed between treatment groups. […] Data is presented as mean volume±SE (n=6).

Molecule | Median Survival (4T1 tumors) [days] | Kd [3] [nM] | Binding to MDA-MB-231 tumor cells in vitro [3] | Kd [4] [nM] | Binding to HAAE-1 human endothelial cells in vitro [4] | L-methioninase enzyme activity [5] [U/mg] | L-methioninase enzyme activity compared with Met-AV [5] | Negative effects of treatment (mouse 4T1 breast tumors) | further results
C[Se]CC[C@H](N)C(=O)O [Sel, selenomethionine] | 18 | – | – | – | – | – | – | – | –
CO[C@H]1C[C@@H]2CC[C@@H](C)[C@@](O)(O2)C(=O)C(=O)N2CCCC[C@H]2C(=O)O[C@H]([C@H](C)C[C@@H]2CC[C@@H](O)[C@H](OC)C2)CC(=O)[C@H](C)/C=C(\C)[C@@H](O)[C@@H](OC)C(=O)[C@H](C)C[C@H](C)/C=C/C=C/C=C/1C [Rap, rapamycin] | 14 | – | – | – | – | – | – | – | –
O=P1(N(CCCl)CCCl)NCCCO1 (stereo not shown) [Cyc, cyclophosphamide] | 23 | – | – | – | – | – | – | – | Lung metastatic nodules, number and size (4T1 lung metastasis): reduced numbers of metastases; Regulatory T cell levels in spleen [1]: mild reduction in regulatory T cell levels; HIF-1-α expression in tumor sections [2]: drastic reduction of HIF-1-α expression
B1 | 18 | 2.5 | bound strongly | 0.11 | bound strongly | 1.3 | substantially equivalent | No negative effects were observed | Fusion protein specific IgG + IgM titer, Day 0 ([6]; daily 10 mg/kg IP, Day 0): Not detected; Fusion protein specific IgG + IgM titer, Day 7 ([6]; daily 10 mg/kg IP, Day 7): Not Detected; Fusion protein specific IgG + IgM titer, Day 14 ([6]; daily 10 mg/kg IP, Day 14): Not Detected; Fusion protein specific IgG + IgM titer, Day 21 ([6]; daily 10 mg/kg IP, Day 21): Not Detected; Immunogenicity: IgG+IgM antibody titers in the bloodstream ([6]; daily intraperitoneal administration, 21 day period): did not produce detectable IgG+IgM antibody titers; Time to complete clearance from the circulation ([7]; BALB/cJ mice): ≤ 10 h; Clearance from the circulation (time) ([7]; SCID mice, ELISA on serum): < 10 h
B2 | – | 0.68 | bound strongly | 2.3 | bound strongly | 1.0 | substantially equivalent | No negative effects were observed | –
